Measurements published in publication PMC4817253.

System: Nc1ncnc2c1ncn2[C@@H]1O[C@H](CO[P@](=O)(O)O[C@@H]2[C@H](O)[C@@H](CO[P@](=O)(O)O[C@@H]3[C@H](O)[C@@H](CO[P@](=O)(O)O[P@@](=O)(O)OP(=O)(O)O)O[C@H]3n3cnc4c(N)ncnc43)O[C@H]2n2cnc3c(N)ncnc32)[C@@H](O)[C@H]1O
Experiment: purified protein
Conditions: pH 7.2; 30.0 °C

Compared with “HKU5 NS4b (Pipistrellus bat coronavirus HKU5)”, “MERS-CoV NS4b (Human betacoronavirus 2c EMC/2012)” is 2-fold higher in Km: 1.3 ± 0.3 µM for the first, 2.6 ± 0.6 µM for the second.

Compared with “MHV NS2 (Murine hepatitis virus strain A59)”, SC2013 NS4b (BtVs-BetaCoV/SC2013) is 2.3-fold lower in Km: 6.7 ± 1.6 µM for the first, 2.9 ± 0.6 µM for the second.

First: HKU5 NS4b (Pipistrellus bat coronavirus HKU5)
Second: MERS-CoV NS4b (Human betacoronavirus 2c EMC/2012)
The kcat/Km of the first is 1.8-fold higher: 1.4e+06 M⁻¹ s⁻¹ for the first, 800000 M⁻¹ s⁻¹ for the second.

In the case of SC2013 NS4b (BtVs-BetaCoV/SC2013), the kcat/Km is reported as 800000 M⁻¹ s⁻¹.
